Test results taken from PMC6697640.

Target: 3X N-terminal FLAG-tagged PTEN (phosphatase and tensin homolog), wild type (UniProt P60484)
Assay: native gel or EMSA; co-IPs from total lysate of BT-549-PTEN cells followed by Western blot under non-denaturing conditions; dimers seen in the input lane and in the co-immunoprecipitate

stoichiometry N: 2
Substance: 3X N-terminal FLAG-tagged PTEN (phosphatase and tensin homolog), wild type, P60484 1-403 (enzyme; other documents disagree on this pair)
